# Data published in a protein production outcome set (Wang et al. 2014).
# Test: label from the status in PepcDB records
row,Sequence,protein production
1,MTSLPTPIIGLIVAVFVLVWLVLRTRVHALIAMLAAACIAGLLGGMGIDKTLSVITSGFGTTLGSIGLVIGLGVMMGRLLEVSGAAERIAWSFIKWLGKRREEWALAITGYIVSIPIFVDSAFVILYPVAKALAKSGKRSLLTLGVALAGGLAVTHHTVPPTPGPLGVAGIFNVDIGAMLLTGMALAVPCVIGIVFYAQWLDKRYPDFVPRTLNADEVNAALEQYNKEKEQKDLPSLTLSLLPIVVPIVLIFLKAICSTLATIEGWSGLATHPVVQAINFVGSPVIALAISVLLAVYTLVPRMDKHTTAERLEEGLQSAGIILLVTGAGGALGAILRDSGAGQQLAEQVANLPISPILIPFIVATLVRLIQGSGTVAMITAASISAPILAQIPGINMLLAAQAATMGSLFFGYFNDSLFWVVNRMMGVSDVKQQMVVWSVPTTIAWAIGGTGVALINLLFGSGGSWLDPLLPIVVLAAIMLWVRWQAQGIKDKLVVKD,failed
2,MPSSDLRAFVVRVVIVLALVAYAWLLWALSGLLLMVFGAVVVAVLLRALASWVTRYTPLSDGMALGLVVVVVAVGFTALLWLFGSQLATELGALQRTLPQAWARFHDWVAAGPLGPALEELTRQAPARVSNLAPRAGAFALSITGGVANLFLVLAGAVYLAAQPQLYRRGVLLLFPVQVRATMDDAVRASGTALRLWLRGQLLAMVVVGALTGLGLWALGIPGALALGIIAGLLDFVPIVGPILAAIPAILLGFTVSPQMALATAALFVVVQQIEGNILLPLIQQRTVDLPPVLLLFSLFGIGTLLGPAGVLLAAPLTVVAFVLVKRLYVQEALHTPTSIPGQKHH,failed
3,SYVQDYRSPFIASVSDQHGVVYITENKNKTVVIPCLGSISNLNVSLCARYPEKRFVPDGNRISWDSKKGFTIPSYMISYAGMVFCEAKINDESYQSIMYIVVVVGYRIYDVVLSPSHGIELSVGEKLVLNCTARTELNVGIDFNWEYPSSKHQHKKLVNRDLKTQSGSEMKKFLSTLTIDGVTRSDQGLYTCAASSGLMTKKNSTFVRVHEKPFVAFGSG,not failed
4,DEWTDEQFKQLISFKTQPGGWGVTDVHVRYANSAKYTYNLPVLVSGSTDNTDDRLVSFSLRDDTLDILNFEKFGNRPELYFRELPQKYYSFPKELTIPAGQSHALLPIEFSLDGLDDSQKWALPLKVCEDANGTYAVNPRKYYRTAVLRPILFNEFSGRFSGSSLLGTMAGESDIKFSSTEIKLNVVTDSIVFFYAGQRTEDYEDRINYKVFLQFTGDKVDSKKDLYKMKIWAENEKLKFNSYSTPTYKVSSEMDATKTYLKHTYIVISDIDFDFVDYTSVPNYEIEYNMKGGLSVSRDLDTRKPDEDQGSDSKWW,not failed
5,MPGFDYKFLEKPKRRLLCPLCGKPMREPVQVSTCGHRFCDTCLQEFLSEGVFKCPEDQLPLDYAKIYPDPELEVQVLGLPIRCIHSEEGCRWSGPLRHLQGHLNTCSFNVIPCPNRCPMKLSRRDLPAHLQHDCPKRRLKCEFCGCDFSGEAYESHEGMCPQESVYCENKCGARMMRRLLAQHATSECPKRTQPCTYCTKEFVFDTIQSHQYQCPRLPVACPNQCGVGTVAREDLPGHLKDSCNTALVLCPFKDSGCKHRCPKLAMARHVEESVKPHLAMMCALVSRQRQELQELRRELEELSVGSDGVLIWKIGSYGRRLQEAKAKPNLECFSPAFYTHKYGYKLQVSAFLNGNGSGEGTHLSLYIRVLPGAFDNLLEWPFARRVTFSLLDQSDPGLAKPQHVTETFHPDPNWKNFQKPGTWRGSLDESSLGFGYPKFISHQDIRKRNYVRDDAVFIRAAVELPRKILS,not failed
6,NAGFECGTEYLNFDEQPATMLDANLLSVEEGYPVTIIERLRTADGEPVVYCLDKIAKKELTCTEYQMSNGSILSAIKEQSNHNICYADTEIEAVNYEPRISEVLNASPHEGLILLKITHYNELDEPILYSLNYMKNSLVQ,failed
7,MIRLSNENTIFFMDKENVPIASCQSGDTVIFETKDCFSDQITNEEQALTSIDFNRVNPATGPLYVEGARRGDMLEIEILDIKVGKQGVMTAAPGLGALGESLNSPTTKLFPIEGDDVVYSTGLRLPLQPMIGVIGTAPPGEPINNGTPGPHGGNLDTKDIKPGTTVYLPVEVDGALLALGDLHAAMGDGEILICGVEIAGTVTLKVNVKKERMFPLPALKTDTHFMTIASAETLDAAAVQATKNMATFLANRTALSIEEAGMLLSGAGDLYVSQIVNPLKTARFSLALHYFEKLGVDLCN,not failed
8,MTADSQTCFCVCTMAVTVTNNQAIDLSRAKAQGRAMAKPLTSHRPILAVSLKLGALVLFTSMSALIKVLSADFPAGEMVFFRSLFAIPVIILWLLARGELRQGLIVKKPMGHFWRGVLGTGAMGLTFTGLGLLPLPEVTAIGYATPIFTLILAALMLGETIRLVRIGAVALGLLGVLIMLWPRLGTGASLDQAATIGALCVLAATVARAFVQIHIRQLVQVDHAAAIVFYFSLTATLLSGLTAFFGWVTPTPEQAAILILTGLVGGVAQILVTSSYRFGQASMLAPYDYASMLFAIIIGYIWFDEWPTLVMLAGAMLVIAGNVVVIWRERQLGLERGKARSVTDPKG,failed
9,AKESEQKVTIDSAKHEKHTKDKEENNSANTVFFDKINDLLVASVKEFEGTVGISYLDLETGEQRSVNGQHEFYTASTIKVPLTMLVADTVASGQKKWTDLIPYNAEEDYEEGTGIIAYNIQPEYPLKTLQEYAITYSDNIAKNMLYDTLGGDAKAKREMYQRYLHKTPSIEEPQFSSEDALVILQKLYTEKATKPDYQAIYDSMKQSVFHERMETPTTQGKVAHKIGSYDEFIHDMGILETPHPFALAIFTKGPDNAKSAAFIASVTDKLWQLQVSEYPNQ,not failed
10,MSPVINHPVLGPAAPSLGWVPAPRYWLRRQRVLDHMRTLERGRLLEIGCGGGALLADLSRLGFDCRALETSPAARVVARAMNADTEGDKIVETAPADWRGSFDVVAAFEVLEHIDDDVGALRDWRDWLVDGGHILISVPADPRKFNAADEWAGHFRRYDKEDLHKVLKQAGFSVVSSETYGYPLANFLEYFRASAHQLMRKQWAHRSRDDATAQSGVNRSLDSKVWPLYSSALGVRALRLADSLQKRFRDNGRGNGLLVIGRRI,failed
11,MKKKNNNKLHYLDSKGKLYTSGLRSDTKEKYGEIPSSNKNHNLIEKYNELQSLLSKEEEKYDFVKNELGDLQKQKDLLKWHLCNNIKKLSMKRSDYKFKTETKSKLESKLKSLKDMNKIHKFEHDTLEELVHKMEQELETKMYIKNDIENIFNECINKKDEYLKDITQERISVFKERKKRQNQLQKLLLIMKQENNKNYNINYLKKYESNLMNEINSYKNYKDFETKIAMDLIDDHSLNDLYVT,failed
12,MKDNPISPTIPLDQDGVHHGFLKLPYSRDDSAWGSVMIPITVIQNGAGKTALLTGANHGDEYEGPVALQELAATTRAEDVTGRLIIVPYFNYPAFRASARTSPIDRGNLNRAFPGRPDGTVTQKIADYFQRTLLPMADVAVDFHSGGKTLDFVPFAAAHILEDKVLQDACFAAMQAFNAPYSVQLLEIDSEGMYDTAVEEMGKVLVTTELGGGGMSTARSNAIAKKGLRNVLIHFGILQGEMQIDPSVTLDMPDGDCYLFSEHDGLFEIMIDLGEPVQEGDLVARVWSPDRTGEAPVEYRARRSGVLISRHFPGMIKSGDCAAVIGVVEG,not failed
13,MNVMQENQIKLIEHIKQAVVQAVGLEETEVPEILLEVPKDKKHGDYSTNIAMQLARVAKKAPRQIAESIVPELKKDTKLIKEVEIAGPGFINFYLDNAYLTDLVPVILTEDKKYG,not failed
14,MPTYLFLSSGNVLADRRYDFARELLARGEAEAAADLLAQAVELAPDFTSAWFALGEIRQDRLGNREGAVDAFRRARAADPRDRHGAGLRLMRLGAADLDAMSPAYIGALFDQYAPRFDKSLVEDLGYRGPALLFEAVREVCETTGRAMAFRRAIDLGCGTGLVGRAFAPIISEIIGFDLAPQMIERARATGVYGRLAVTDLVQGLANEPPASAELILAADVLIYIQDVAPLLHEAARVLPPGGLLAVTAETHAGDGVVLTAGLRFAQAESYLRAELERAGLVVALLQYASARNEKHTPLPGLVVVAFRPNG,failed
15,WLDLAPSTQVDTETSINVLSDIEFTLNGIYSTMQSSDAYSGRLVYYGDVTGDDMQAVSSTKRTGNYYRFNFTKDNGPSSHWSYLYSIIQNCNLILMNVDKLSIDEDETEYKNDLKGQALAIRGMALFDLTRIFGYPYLKDNGASLGVPIVKELSTIDSKPARNTVAECYTEIISDLKNSTELLSGDFNKGKVNRWAAMTLLSRVYLYKGEYNEALTMAENAIKGAEKEGYALWTNEEYPTAWGNDASASNPGEILFEIVNLTTDSPGKESMGYLNSYNGYDDMCITCSFYQLLKKDPKDVRLKILSFDKKYYAYVNKYQPQQGENITDANIPLIRLSEAYLNAAEAAVQTGDNAKAVKYLNSIVQRANPENSVEGKTLTLENVLDERRKELVAEGHRMYDVIRNGMTVKRIDVKDSDINKTKHNTAYMEYDWNFHKILLPIPKKEMDANPNMKQNPGYVD,not failed
16,MKRKLLAILLSVSMIATLVTACGSKEVSDNSAKEEGVTVEDVKAALKDENAVVLDARTQDAYAGWSTENNKLGGHIESSSGFSAAWLTCEYDDEANDDNRTREERLEICMEDKGITADTKVIIYDENGKDAAAVSEYLSGKGVKDIETFNLADWDGELVKYENYQTILPPSIVKKLIDGETVEEVGEVKDLKVLEFSWGTEEESGYLEGHVPTAIHINSDDVDDENNIYVLDKDEILLETVKKAGVTVDSTVVVTGAGLFSCHLATILKYLGVEDVYIMSGGANGWTDAGYEAEKGSNTPVAVEDFGTDKPLNPDYIDDVEEVSLLLTDKNAQVIDTRAYKEFTGESSGYSYVEEAGRLNGAIFGQEDGSAQGPDCTGSSMMYYENIDGTMRDASEILEMWSNSNVDVNKHLSFYCGGGYRAAAVMWYAQAMGLEDTSLYNDGWAGWIVYGKDAVKGTYEDPQPVN,failed
17,MIKAVKKRKEGNMLKDLNTNQGLKPWRVESVFYCIVIVLIFIGAFKIAEAVFKPLAISIVLGFLVYPVYTFLARFKVPKFLIVFIIFFLLFSFSYLIFSFVYYSVTVLMKQLPYYQNQLAFIMKDVLSRYKVDSSVINDVNFSGYIYPFLTRAYNEIIGFTSSLVVVFLLLYFLLSEIHVFEMKLDKAFKKPISTRFIGALDTINNQIGKYLGIKILVSCLTGILVFIGLTLFGQDFPLVWAVLSFVFNFIPSIGSILAVFFIVITSLIQFYPNLNIVLYVFIYNTSIQMLIGNILEPKMQGKRLDISPFLLLCFLFFWGWLWGIVGLLISYPFTVIVKVIVDNVSWLKSFSVFLGGSEILSNISHISSKDKEI,failed
18,MKKSLLMLLLSAATLSSIEAQTIQQMKAGGPWPVRAAFKTDTVGMNGSKYNPADLLRQAYDATDKDLRNVSADKDGRIAGRKAGSKAERSEMAVYSFALTAEHFAKGDIEVFGQGRMSLWLDDKQIGIADSPNSKGDTTLRFSASLSLVPGTHHLLLKSLLLEGDTTATDVRVVLKPKTARDSSALYPNYTGKERLSLKHMMSGTFLSGGSLSPTGKYVLTSYRVSRDNKPAVTYNQLRDAKGNILLNLNEKEALGWMPHEDMLMVIRKEGNAKRLVAFDPMGKGEKTLVSNLPESQFRMSPDARYYLFYKQEKGPGKDPLFIRHLDPDDRQSDWRDRSQIYLLNAESGVYGPLTFGYSTTYIYDIAPDSKRALIGTLSTDWTRRPFRFATIMEYNMETGKADTLITRDPSIDAIQYTPDGKHLIVMGSADAFGNIGLNLKSGVTPNSYDKQFFLFDLSTRKATALTKNFNPSVSAGRFDRKNNYYYFRAENGSRKQLYRLDLKTLEISQIQTGEDVVQWFGVAADNGAVWYSGQSANNADRLYRLDGTKGKLVWDLSAEKLANIDFTPARDWNYTAPDGTVVEGWYYLPPQFDPSKKYPMLVYYYGGTSPINRTLEGHYSLAMYAAQGYVVYTLNPSGTTGYGQEYAARHVNAWGDRTADEIIGATKEFIRTHSFVNGKKVGCFGASYGGFMTQYLQTKTDIFAAAVSHAGISSISNYWGSGYWGMGYSTVASTDSYPWNNPDLYAGHSPLFRADKIHTPLLLLHGSVDTNVPTAESVNLYNALKILGREVEFIEFTEQDHFILEPERRIRWTNSICAWFARWLQDDPTWWNELYPPVNL,failed
